The record followed here is publication PMC6177200, “EpCAM ectodomain EpEX is a ligand of EGFR that counteracts EGF-mediated epithelial-mesenchymal transition through modulation of phospho-ERK1/2 in head and neck cancers” (PLoS Biology, 2018).

“And” between values parts separate entries of the source, which are not always exact repeats. Identical values can stand only once.

Assay [1] has as its target T1, EpEX-Fc (extracellular domain of EpCAM fused to the constant region of human immunoglobulin 1) (human), P16422.
T1 chain: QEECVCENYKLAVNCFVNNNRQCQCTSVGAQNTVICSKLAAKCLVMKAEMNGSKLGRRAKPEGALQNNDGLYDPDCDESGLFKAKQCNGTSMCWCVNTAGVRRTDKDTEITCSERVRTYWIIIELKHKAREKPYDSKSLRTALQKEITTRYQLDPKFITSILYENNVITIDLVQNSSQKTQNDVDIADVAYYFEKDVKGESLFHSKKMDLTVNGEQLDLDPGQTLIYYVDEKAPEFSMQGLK
As to the kind of experiment: native gel or EMSA; purified EpEX-Fc in native versus reducing immunoblot experiments with specific antibodies. The note with it: remark: other sources report otherwise. Background: In EMSA bound probe runs differently from free probe, usually more slowly.

For assay [2], the target named is T2, EGFRex (extracellular domain of EGFR, aa 25-642) (UniProt P00533 25-642).
T2 construct: extracellular domain of epidermal growth factor receptor, aa 25-642; source: expressed and purified as reported [118]
As to the kind of experiment: cross-linking; BS3 cross-linker (3.6 μg, 30 min, 37 °C); EpEX and EGF 250 pmol, EGFRex 50 pmol in 9 μl of 20 mM HEPES pH 8.0, 100 mM NaCl, 1 hr at 37 °C before; EGF added where indicated. Conditions: both partners purified.

Assay [3] concerns the target epidermal growth factor receptor (EGFR), endogenous full-length (human (endogenous in FaDu, Cal27, HCT8), UniProt P00533 25-1210). As to the kind of experiment: cell-based or functional assay.
For assay [4], the target named is T3, EpEX (extracellular domain of EpCAM, aa 24-265), recombinant (human), P16422.
T3 chain: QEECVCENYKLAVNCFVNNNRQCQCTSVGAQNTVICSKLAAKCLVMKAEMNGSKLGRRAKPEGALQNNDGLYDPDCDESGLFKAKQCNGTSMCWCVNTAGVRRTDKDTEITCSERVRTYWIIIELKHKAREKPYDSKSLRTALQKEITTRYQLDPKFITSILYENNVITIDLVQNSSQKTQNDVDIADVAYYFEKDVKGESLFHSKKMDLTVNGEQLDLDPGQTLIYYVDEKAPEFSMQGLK
Put plainly: cross-linking; BS3 cross-linker (3.6 μg, 30 min, 37 °C); EpEX and EGF 250 pmol, EGFRex 50 pmol in 9 μl of 20 mM HEPES pH 8.0, 100 mM NaCl, 1 hr at 37 °C before; EGF added where indicated. Conditions: remark: other sources report otherwise.

B1: EpEX-Fc (extracellular domain of EpCAM fused to the constant region of human immunoglobulin 1), P16422 24-265 (Fc fusion)
chain: QEECVCENYKLAVNCFVNNNRQCQCTSVGAQNTVICSKLAAKCLVMKAEMNGSKLGRRAKPEGALQNNDGLYDPDCDESGLFKAKQCNGTSMCWCVNTAGVRRTDKDTEITCSERVRTYWIIIELKHKAREKPYDSKSLRTALQKEITTRYQLDPKFITSILYENNVITIDLVQNSSQKTQNDVDIADVAYYFEKDVKGESLFHSKKMDLTVNGEQLDLDPGQTLIYYVDEKAPEFSMQGLK
modifications: here or on the partner: N-glycosylated; N-glycosylated
Take B1: the stoichiometry N in assay [1] is 2 and 3.

B2: EpEX (extracellular domain of EpCAM, aa 24-265), recombinant (domain or fragment, human, UniProt P16422 24-265, looked up)
chain: QEECVCENYKLAVNCFVNNNRQCQCTSVGAQNTVICSKLAAKCLVMKAEMNGSKLGRRAKPEGALQNNDGLYDPDCDESGLFKAKQCNGTSMCWCVNTAGVRRTDKDTEITCSERVRTYWIIIELKHKAREKPYDSKSLRTALQKEITTRYQLDPKFITSILYENNVITIDLVQNSSQKTQNDVDIADVAYYFEKDVKGESLFHSKKMDLTVNGEQLDLDPGQTLIYYVDEKAPEFSMQGLK
notes: extracellular domain of EpCAM, aa 24-265; also called purified recombinant EpEX; source: Sf9 insect cells, purified as described [47]
Take B2: the “stoichiometry N” value in assay [2] was 1 EpEX per EGFRex and 2 EpEX per EGFRex.

B3: EpEX-Fc (extracellular domain of EpCAM fused to the constant region of human immunoglobulin 1) (Fc fusion, UniProt P16422 24-265, looked up)
chain: QEECVCENYKLAVNCFVNNNRQCQCTSVGAQNTVICSKLAAKCLVMKAEMNGSKLGRRAKPEGALQNNDGLYDPDCDESGLFKAKQCNGTSMCWCVNTAGVRRTDKDTEITCSERVRTYWIIIELKHKAREKPYDSKSLRTALQKEITTRYQLDPKFITSILYENNVITIDLVQNSSQKTQNDVDIADVAYYFEKDVKGESLFHSKKMDLTVNGEQLDLDPGQTLIYYVDEKAPEFSMQGLK
modifications: N-glycosylated
For the molecule B3, in assay [3], the “increase in cell numbers of serum-starved FaDu cells after 72 hr with high-dose EpEX (10 nM); blocked by Cetuximab” value was found to be 1.5 fold; the “increase in cell numbers of serum-starved Kyse30 cells after 72 hr with EpEX-Fc (1 and 10 nM; low dose without significant effect); blocked by Cetuximab” value stood at 2 fold; the “pERK1/2 by immunofluorescence in cells treated for 30 min with EpEX-Fc (10 nM) compared to EGF (9 nM)” value came to 3 fold.

B4: EpEX (extracellular domain of EpCAM, aa 24-265), recombinant, P16422 24-265 (domain or fragment)
chain: QEECVCENYKLAVNCFVNNNRQCQCTSVGAQNTVICSKLAAKCLVMKAEMNGSKLGRRAKPEGALQNNDGLYDPDCDESGLFKAKQCNGTSMCWCVNTAGVRRTDKDTEITCSERVRTYWIIIELKHKAREKPYDSKSLRTALQKEITTRYQLDPKFITSILYENNVITIDLVQNSSQKTQNDVDIADVAYYFEKDVKGESLFHSKKMDLTVNGEQLDLDPGQTLIYYVDEKAPEFSMQGLK
For B4, in assay [4], the stoichiometry N was 2.

As a reminder, the stoichiometry N is the number of molecules, sites or subunits per partner or assembly.
